Source: patent publication US20220119534A1 (DRAGONFLY THERAPEUTICS, published 2022)
Numbering of substitutions follows the chain as printed. Where “and” joins values, the source holds several entries; their conditions need not be identical. Equal entries are not always repeated. Where two headings read alike, the source gives them in different places.

T1: recombinant human CLEC12A-His (human, UniProt Q5QGZ9 65-265)
T1 construct: also called hCLEC12A-His; hCLEC12A
T1 sequence: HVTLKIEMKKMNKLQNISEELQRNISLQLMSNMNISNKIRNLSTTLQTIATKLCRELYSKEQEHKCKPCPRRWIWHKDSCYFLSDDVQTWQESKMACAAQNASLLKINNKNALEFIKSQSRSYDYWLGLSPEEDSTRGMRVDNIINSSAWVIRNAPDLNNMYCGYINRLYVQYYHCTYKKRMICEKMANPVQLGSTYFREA

T2: recombinant cynomolgus CLEC12A-His (cynomolgus monkey, UniProt A0A2K5WXQ4 71-271)
T2 construct: also called cCLEC12A-His; cCLEC12A
T2 sequence: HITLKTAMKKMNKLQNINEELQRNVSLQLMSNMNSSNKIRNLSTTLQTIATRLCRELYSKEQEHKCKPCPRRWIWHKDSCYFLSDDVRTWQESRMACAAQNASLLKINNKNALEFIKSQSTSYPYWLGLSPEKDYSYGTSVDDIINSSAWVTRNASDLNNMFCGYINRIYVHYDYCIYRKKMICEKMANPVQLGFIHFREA

T3: cynomolgus CLEC12A expressed on RMA cells (cynomolgus monkey, UniProt A0A2K5WXQ4 7-271)
T3 construct: whole, on cells; also called cCLEC12A isogenic cell line
T3 sequence: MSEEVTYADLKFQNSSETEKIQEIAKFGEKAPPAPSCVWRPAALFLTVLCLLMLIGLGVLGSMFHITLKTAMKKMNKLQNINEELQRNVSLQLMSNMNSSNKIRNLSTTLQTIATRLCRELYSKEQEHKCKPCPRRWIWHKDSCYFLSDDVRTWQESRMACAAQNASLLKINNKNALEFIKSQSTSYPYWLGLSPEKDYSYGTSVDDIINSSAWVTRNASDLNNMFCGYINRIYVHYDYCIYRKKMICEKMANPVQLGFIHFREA

B1: 9F11.B7 (antibody, V domains shown)
VH: EVQLQESGGGLVQPGGSRKLSCAASGFTFNSFGMHWVRQAPEKGLEWVAFISSGSTSIYYANTVKGRFTISRDNPKNTLFLQMTSLRSEDTAMYYCARDGYPTGGAMDYWGQGTSVTVSS
VL: DIKMTQSPSSMYASLGERVTITCKASQDIYNYLSWFQLKPGKSPRPLIYRANILVSGVPSKFSGSGSGQDYSLTINSLEYEDLGIYYCLQFDAFPFTFGSGTKLEIK
notes: Murine mAb
B2: scFv-1602 displayed on yeast (scFv)
scFv: QLQLQESGPGLVKPSETLSLTCTVSGFSLTNYGLHWIRQPPGKCLEWIGVIWSGGKTDYNPSLKSRVTISKDTSKNQFSLKLSSVQAADTAVYYCAKYDYDDSLDYWGQGTLVTVSSGGGGSGGGGSGGGGSGGGGSDIQMTQSPSSLSASVGDRVTITCHASQNINFWLSWYQQKPGKAPKLLIYEASNLHTGVPSRFSGSGSGTRFTLTISSLQPEDIATYYCQQSHSYPLTFGCGTKLEIK
B3: F3'-1295 TriNKET (other)
chain: QLQLQESGPGLVKPSETLSLTCTVSGFSLTNYGLHWIRQPPGKCLEWIGVIWSGGKTDYNPSLKSRVTISKDTSKNQFSLKLSSVQAADTAVYYCAKYDYDDSLDYWGQGTLVTVSSGGGGSGGGGSGGGGSGGGGSDIQMTQSPSSLSASVGDRVTITCHASQNINFWLSWYQQKPGKIPKLLIYEASNLHTGVPSRFSGSGSGTRFTLTISSLQPEDIATYYCQQSHSYPLTFGCGTKLEIKGSDKTHTCPPCPAPELLGGPSVFLFPPKPKDTLMISRTPEVTCVVVDVSHEDPEVKFNWYVDGVEVHNAKTKPREEQYNSTYRVVSVLTVLHQDWLNGKEYKCKVSNKALPAPIEKTISKAKGQPREPRVYTLPPCRDELTKNQVSLTCLVKGFYPSDIAVEWESNGQPENNYKTTPPVLVSDGSFTLYSKLTVDKSRWQQGNVFSCSVMHEALHNHYTQKSLSLSPG
heavy: EVQLVESGGGLVKPGGSLRLSCAASGFTFSSYSMNWVRQAPGKGLEWVSSISSSSSYIYYADSVKGRFTISRDNAKNSLYLQMNSLRAEDTAVYYCARGAPIGAAAGWFDPWGQGTLVTVSSASTKGPSVFPLAPSSKSTSGGTAALGCLVKDYFPEPVTVSWNSGALTSGVHTFPAVLQSSGLYSLSSVVTVPSSSLGTQTYICNVNHKPSNTKVDKKVEPKSCDKTHTCPPCPAPELLGGPSVFLFPPKPKDTLMISRTPEVTCVVVDVSHEDPEVKFNWYVDGVEVHNAKTKPREEQYNSTYRVVSVLTVLHQDWLNGKEYKCKVSNKALPAPIEKTISKAKGQPREPQVCTLPPSRDELTENQVSLTCLVKGFYPSDIAVEWESNGQPENNYKTTPPVLDSDGSFFLYSWLTVDKSRWQQGNVFSCSVMHEALHNHYTQKSLSLSPG
light: DIQMTQSPSSVSASVGDRVTITCRASQGISSWLAWYQQKPGKAPKLLIYAASSLQSGVPSRFSGSGSGTDFTLTISSLQPEDFATYYCQQGVSFPRTFGGGTKVEIKRTVAAPSVFIFPPSDEQLKSGTASVVCLLNNFYPREAKVQWKVDNALQSGNSQESVTEQDSKDSTYSLSSTLTLSKADYEKHKVYACEVTHQGLSSPVTKSFNRGEC
B4: AB0147 TriNKET (other)
chain: B3 chain with W52L, K56W, Y98G, D101G, S103A, I180A
heavy: B3 heavy
light: B3 light
B5: human CLEC12A expressed on cells (receptor)
chain: MSEEVTYADLQFQNSSEMEKIPEIGKFGEKAPPAPSHVWRPAALFLTLLCLLLLIGLGVLASMFHVTLKIEMKKMNKLQNISEELQRNISLQLMSNMNISNKIRNLSTTLQTIATKLCRELYSKEQEHKCKPCPRRWIWHKDSCYFLSDDVQTWQESKMACAAQNASLLKINNKNALEFIKSQSRSYDYWLGLSPEEDSTRGMRVDNIINSSAWVIRNAPDLNNMYCGYINRLYVQYYHCTYKKRMICEKMANPVQLGSTYFREA
notes: Transduced isogenic cells or endogenous expression on AML cells; also called RMA-hCLEC12A; Ba/F3-hCLEC12A
B6: 9E4.B7 (antibody, V domains shown)
VH: EVQLQESGAELMKPGASVKISCRTTGYTFSTYWIEWVKQRPGRGPEWIGELFPGNSDTTLNEKFTGKATFTADSSSNTAYMQLSSLTSEDSAVYYCARSGYYGSSLDYWGQGTTLTVSS
VL: GIVMTQSPASLSASVGETVTITCRAGENIHSYLAWYQQKQGKSPQLLVYNAKTLAEGVPSRFSGSGSGTQFSLKINSLQPEDFGSYYCQHHYGTPRTFGGGTKLEIK
notes: Murine mAb; also called 9E04

How the values were obtained:
[1] = target: T1, recombinant human CLEC12A-His; test: SPR; sensorgrams of a CLEC12A concentration series with fit overlays (response up to about 18, time axis 0 to about 900)
[2] = target: B5; test: flow cytometry (MFI) on CLEC12A+ PL-21 AML cells, about 0.2 to 130 nM, plateau about 250 MFI; the molecule is assigned by panel order and legend paragraph 296
[3] = target: T2, recombinant cynomolgus CLEC12A-His; test: SPR, purified murine subclone mAb and Cyno CLEC12A-His
[4] = target: B5; test: flow cytometry, PL21 cells
Protocol: The ability of the eight purified subcloned mAbs to bind to CLEC12A expressing cells was assessed by FACS analysis with human CLEC12A-positive PL21 cancer cell line.

[5] = target: T1, recombinant human CLEC12A-His; test: SPR, purified murine mAb
[6] = target: T3, cynomolgus CLEC12A expressed on RMA …; test: flow cytometry, RMA-cCLEC12A, hybridoma supernatant
Protocol: Briefly, RMA cells were transducted with a retroviral vector encoding cCLEC12A or hCLEC12A. […] 100,000 RMA, REH or SEM cells were added per well of a 96 well round bottom plate. Cells were spun down and the pellet was gently dissociated by vortexing. 100 μL of Zombie live/dead dye (PBS+1:2000 dye) were added per well and incubated in the dark at room temperature for 20 minutes. Cells were washed with 200 μL of FACS buffer (PBS+2% FBS). 50 μL of hybridoma supernatants were added to the washed cells and the mixtures were incubated for 30 minutes on ice in the dark. Cells were washed twice with FACS buffer and then 50 μL of anti-mouse Fc-PE secondary reagent (1:200 dilution) were added and incubated for 20 minutes on ice in the dark. After the incubation, the cells were washed and then fixed with 50 μL of 4% paraformaldehyde for 15 minutes on ice. The fixed cells were washed with FACS buffer, resuspended in 200 μL FACS buffer, and stored at 4° C. until ready for acquisition. The samples of cells resuspended in FACS buffer were run on BD FACSCelesta equipped with an HTS (high throughput sampler) to determine the binding affinities of the antibodies to isogenic RMA cells expressing CLEC12A and the U937 AML cancer cell line.

[7] = target: T1, recombinant human CLEC12A-His; test: flow cytometry of yeast-displayed scFv; x axis PE-A binding of Clec12a-his, y axis FITC-A scFv expression; CLEC12A-His concentration not printed on the sheet
[8] = target: T1, recombinant human CLEC12A-His; test: SPR screening, semi-purified
Protocol: Binding affinities of the 18 semi-purified TriNKETs for hCLEC12A were assessed by SPR in screening.

[9] = target: T1, recombinant human CLEC12A-His; test: SPR 37C, average
[10] = target: B5; test: flow cytometry, hCLEC12A+ Ba/F3
[11] = target: T1, recombinant human CLEC12A-His; test: SPR 37C
[12] = target: B5; test: flow cytometry (gMFI) on CLEC12A+ PL-21 AML cells
[13] = target: T1, recombinant human CLEC12A-His; test: SPR, CLEC12A binding
[14] = target: B5; test: flow cytometry on PL21 cells, surface-bound molecule after 2 h at 37 C relative to 20 min on ice
Protocol: Human cancer cell lines HL60 and PL21 expressing human CLEC12A were used to assess surface retention of CLEC12A-TriNKETs after incubation with cells. PL21 or HL60 cells in duplicate plates were incubated with TriNKETs or mAbs as indicated. The first plate was moved to 37° C. for two hours, whereas the second plate was incubated on ice for 20 minutes. After the respective incubation times, cells were washed. Surface bound TriNKET or mAb was detected using a fluorescent secondary antibody for flow cytometry.
100,000 cells were seeded per well into duplicate 96-well plates for FACS staining. Cells were washed with FACS buffer. Test articles were diluted to 40 nM and were added to each of the duplicate plates. The first plate was incubated on ice for 2 hours, while the second plate was moved to 37° C. for two hours. After the incubation, cells were washed with PBS and cells were incubated in a 1:2000 dilution of live/dead dye in PBS for 15 minutes, then washed with FACS buffer. Anti-human IgG-Fc secondary antibody was diluted into FACS buffer, and 50 μl was added per well for detection of the bound TriNKETs or mAbs. Cells were incubated for 20 minutes on ice, then washed with FACS buffer. 50 μl of fixation buffer was added to each well, and cells were incubated for 10 minutes at room temperature. […] Surface retention was then calculated as follows:

AB0300 = target: T4, AB0300 (Homo sapiens (Human), UniProt P0DOX5 2-448 = IgG part; P0DOX7 1-214, L234A; L235A; P329G); test: flow cytometry on Ba/F3-hCLEC12A cells, fold over background
T4 construct: AB0237 with LALAPG in both Fc chains
Protocol: The cells were then incubated with a fluorophore conjugated anti-human IgG secondary antibody and were analyzed by flow cytometry. The mean fluorescence intensity (MFI) values were normalized to secondary antibody only controls to obtain fold over background (FOB) values.
100,000 cells were seeded per well into a 96-well plate for FACS staining. Cells were washed with PBS. Cells were incubated in a 1:2000 dilution of live/dead dye in PBS for 15 minutes, then washed with FACS buffer. TriNKETs or mAbs were diluted into FACS buffer, and 50 μl containing diluted TriNKET or mAb was added to cells. Cells were incubated on ice for 20 minutes. After the incubation, cells were washed with FACS buffer. Anti-human IgG-Fc secondary antibody was diluted into FACS buffer, and 50 μl was added per well for detection of the bound TriNKETs or mAbs. Cells were incubated for 20 minutes on ice, then washed with FACS buffer. 50 μl of fixation buffer was added to each well, and cells were incubated for 10 minutes at room temperature. Cells were washed with FACS buffer and resuspended in FACS buffer for analysis with BD FACS Celesta SN #H66034400085, or BD FACS Celesta SN #H66034400160. Cells of interest were identified using FSC vs. SSC plot, and an appropriately shaped gate was drawn around the cells. Within the gated cells, doublet cells were removed by viewing FSC-H vs FSC-A plot. Within the single cell population, live cells were gated. Within the live gate, the mean fluorescence intensity (MFI) of each sample and the secondary-only control was calculated. Fold-over-background (FOB) was calculated as the ratio of test article MFI over secondary-only background MFI. Data were fit to a four-parameter non-linear regression curve using GraphPad Prism 7.0.

[15] = target: T2, recombinant cynomolgus CLEC12A-His; test: SPR, purified murine subclone mAb and Cyno CLEC12A-His; remark: listed apart in the source

Binder: B1
Kd [1]: 1.1 nM
EC50 [2]: 0.5 nM
binding result [3]: no binding
EC50 [4]: 0.56 nM
Max MFI [4]: 217 MFI
Kd [5]: 1.4 nM
koff [5]: 0.00157 s⁻¹
kon [5]: 1.14e+06 M⁻¹ s⁻¹
binding result [6]: no binding

Binder: B2
binding result [7]: binds

Binder: B3
Kd [8]: 2.94 nM
koff [8]: 0.00153 s⁻¹
kon [8]: 520000 M⁻¹ s⁻¹
Kd [9]: 1.43 nM
koff [9]: 0.000594 s⁻¹
kon [9]: 415000 M⁻¹ s⁻¹
EC50 [10]: 26.1 nM
Max MFI [10]: 48000 MFI
Kd [11]: 1.43 nM and 1.42 nM and 1.44 nM
koff [11]: 0.000587 s⁻¹ and 0.000589 s⁻¹ and 0.000605 s⁻¹ and 0.000596 s⁻¹
kon [11]: 411000 M⁻¹ s⁻¹ and 415000 M⁻¹ s⁻¹ and 419000 M⁻¹ s⁻¹ and 416000 M⁻¹ s⁻¹
EC50 [12]: 11.7 nM
Kd [13]: 1.2 nM

Binder: B4
binding result [14]: binds

Binder: B5
binding result (AB0300): binds

Binder: B6
EC50 [4]: 0.64 nM
Max MFI [4]: 186 MFI
binding result [15]: no binding
binding result [6]: no binding
